Results published in patent US20240424062A1 (MEDERIS DIABETES, published 2024).

Key:
Test in all cases: cell-based or functional assay
[1] = target: glucagon receptor (human, cloned into CHO cells) (human, UniProt P47871 26-477)
[2] = target: GLP-1 receptor (human, cloned into CHO cells) (human, UniProt P43220 24-463)
[3] = target: T1, GLP-1 receptor (murine cell line) (murine, UniProt O35659 22-463)
T1 sequence (looked up): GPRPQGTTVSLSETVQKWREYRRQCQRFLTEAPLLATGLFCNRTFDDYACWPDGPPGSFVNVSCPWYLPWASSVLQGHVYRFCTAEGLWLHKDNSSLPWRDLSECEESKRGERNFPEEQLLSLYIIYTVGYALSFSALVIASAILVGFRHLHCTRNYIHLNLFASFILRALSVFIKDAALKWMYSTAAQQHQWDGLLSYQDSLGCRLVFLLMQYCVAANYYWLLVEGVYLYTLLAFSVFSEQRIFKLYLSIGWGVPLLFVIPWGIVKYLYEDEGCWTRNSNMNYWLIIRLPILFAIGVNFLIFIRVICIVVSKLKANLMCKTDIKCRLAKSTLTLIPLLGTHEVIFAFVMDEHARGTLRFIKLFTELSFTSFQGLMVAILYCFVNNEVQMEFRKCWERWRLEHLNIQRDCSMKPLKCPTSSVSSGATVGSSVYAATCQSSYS

glucagon receptor (human, cloned into CHO cells), sequence (P47871 26-477): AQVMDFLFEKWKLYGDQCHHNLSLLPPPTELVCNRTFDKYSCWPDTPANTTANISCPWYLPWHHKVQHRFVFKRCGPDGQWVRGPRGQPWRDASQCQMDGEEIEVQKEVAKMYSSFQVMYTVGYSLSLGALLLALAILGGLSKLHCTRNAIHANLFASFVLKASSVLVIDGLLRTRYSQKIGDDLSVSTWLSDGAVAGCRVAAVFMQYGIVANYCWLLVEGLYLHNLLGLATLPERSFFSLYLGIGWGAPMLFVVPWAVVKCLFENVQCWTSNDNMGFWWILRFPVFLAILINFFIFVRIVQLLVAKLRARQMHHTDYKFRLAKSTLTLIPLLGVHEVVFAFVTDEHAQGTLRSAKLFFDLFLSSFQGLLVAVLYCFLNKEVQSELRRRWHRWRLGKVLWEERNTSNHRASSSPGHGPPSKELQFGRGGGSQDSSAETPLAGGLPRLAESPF

Binder	EC50 cAMP (DiscoveRx) [1] [nM]	EC50 cAMP (DiscoveRx) [2] [nM]	EC50, cAMP stimulation in cells (Cerep) [3] [nM]
HXQGTFTSDYSKYLDXQAAXEFIXWLLQT (not fully specified; Aib at 2; Glu*16 and Lys*20 cyclized through their side chains to a lactam; Lys(N-omega(1-octyl beta-D-glucuronyl)) at 24; C-terminal amide (NH2)) [EU-A992]	0.019	0.009	–
HXQGTXTSDYSKYLDXX (not fully specified; 1-dodecyl alkyl glycoside surfactant on a linker residue (position not given)) [EU-A391]	–	–	420
